From US20150216795A1 (SANOFI, priority 2012, published 2015)

Experiments:
endothelial cells = assay: Endothelial cell proliferation in animals; assay type: in vivo
Source text: (§1) This inhibition can result in decreased neovascularization and decreased vascular permeability.

[1] = Population pharmacokinetic analysis; assay type: in vivo, human
Source text: There are no data available for patients with severe hepatic impairment.
There is no data available for patients with severe hepatic impairment (total bilirubin>3×ULN and any SGOT/AST).

human PIGF-2 = molecular target: T1, human PIGF-2 (Homo sapiens, UniProt P49763); assay: Binding, equilibrium dissociation constant
T1 sequence (P49763 19-170 isoform P49763-3 limits assumed): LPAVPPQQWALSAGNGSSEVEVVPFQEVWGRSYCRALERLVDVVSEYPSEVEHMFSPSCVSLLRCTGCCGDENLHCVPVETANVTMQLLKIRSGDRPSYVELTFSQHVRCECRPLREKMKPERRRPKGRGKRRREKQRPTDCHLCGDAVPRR
Source text: as §1

human VEGF-B = molecular target: T2, human VEGF-B (Homo sapiens, UniProt P49765); assay: Binding, equilibrium dissociation constant
T2 sequence (P49765 31-129 limits assumed): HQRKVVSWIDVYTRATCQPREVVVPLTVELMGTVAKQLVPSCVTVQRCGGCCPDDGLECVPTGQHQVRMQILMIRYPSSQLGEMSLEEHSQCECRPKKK
Source text: as §1

[2] = tested on: patients with solid tumors; assay: Cardiac electrophysiology, QTc study; assay type: in vivo, human; conditions: 6 mg/kg intravenous every three weeks; 87 patients; large = greater than 20 ms
Description: The effect of 6 mg/kg intravenous ZALTRAP every three weeks on QTc interval was evaluated in 87 patients with solid tumors in a randomized, placebo-controlled study. […] However, a small increase in the mean QTc interval (i.e., less than 10 ms) cannot be excluded due to limitations of the study design.

pregnant rabbits = assay: Embryo-fetal toxicity study; assay type: in vivo, rabbit; conditions: every 3 days during organogenesis, intravenous, all doses tested
Source text: Adverse embryo-fetal effects included increased incidences of postimplantation losses and external (including anasarca, umbilical hernia, diaphragmatic hernia and gastroschisis, cleft palate, ectrodactyly, and atresia), visceral (in the heart, great vessels, and arteries), and skeletal fetal malformations (including fused vertebrae, sternebrae, and ribs; supernumerary arches and ribs, and incomplete ossification). […] The incidence and severity of fetal anomalies increased with increasing dose.

[3] = tested on: xenotransplanted colon tumors; assay: Xenotransplanted colon tumor growth; assay type: in vivo; conditions: mice
Source text: as §1

[4] = tested on: patients with metastatic colorectal cancer (MCRC)
Source text: Each randomized patient was to be treated until disease progression, death, or unacceptable toxicity.
Treatment arms were evenly balanced for demographics, disease characteristics and prior anti-cancer treatments, including prior exposition to bevacizumab.
Patients received a median of 9 cycles of ZALTRAP/FOLFIRI or 8 cycles of placebo/FOLFIRI.

[5] = tested on: sexually mature cynomolgus monkeys; assay: 6-month repeat-dose toxicology study; assay type: in vivo, cynomolgus monkey
Description: Reversibility was observed within 18 weeks after cessation of treatment. Systemic exposure (AUC) with a 3 mg per kg per dose in monkeys was approximately 60% of the AUC in patients at the recommended dose.
Most ziv-aflibercept-related findings were noted from the lowest dose tested (3 mg per kg per dose) correlating to 60% of the AUC at the human recommended dose.

rabbits = assay: Excisional and incisional skin wound healing models; assay type: in vivo, rabbit; conditions: for wound healing: repeated administration
[6] = tested on: colorectal, pancreatic, and lung cancer populations; assay: Three Phase 3 placebo-controlled clinical studies, GI perforation; assay type: in vivo, human; conditions: across three Phase 3 placebo-controlled studies
Source text: Gastrointestinal (GI) perforation including fatal GI perforation can occur in patients receiving ZALTRAP. Across three Phase 3 placebo-controlled clinical studies (colorectal, pancreatic, and lung cancer populations), the incidence of GI perforation (all grades) was 0.8% for patients treated with ZALTRAP and 0.3% for patients treated with placebo. Grade 3-4 GI perforation events occurred in 0.8% of patients treated with ZALTRAP and 0.2% of patients treated with placebo.

[7] = tested on: patients with metastatic colorectal cancer (MCRC); assay: EFC10262 (VELOUR) randomized double-blind phase 3 study: efficacy (OS, PFS, response rate);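 further: Placebo-controlled comparison, both arms on FOLFIRI every 2 weeks until progression or intolerable toxicity, in patients progressing on or within 6 months after oxaliplatin-based combination chemotherapy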
Source text: Each randomized patient was to be treated until disease progression, death, or unacceptable toxicity. […] The predefined statistical significance level for this final analysis was 0.0466 after adjusting the type I error spent for the two interim analyses using the O'Brien-Fleming spending function.
The study included one formal interim analysis, planned for the purpose of efficacy, when 561 death events (65% information time) had occurred. Upon request of the independent Data Monitoring Committee (DMC), an additional interim analysis of OS was performed to provide an early evaluation of the benefit-risk ratio, when 315 death events (36.5% information fraction) had occurred.
A total of approximately 863 deaths were required to detect 20% hazard rate reduction in OS with 90% power using the two-sided log rank test at an overall 0.0499 alpha level. The median survival times was expected to be 11 months for the control group. The overall alpha level was split between overall survival (0.0499) and progression-free survival as a secondary efficacy endpoint (0.0001).
Approximately 1200 patients (i.e. 600 patients per treatment group) were planned to be randomized. Treatment assignment was stratified according to prior therapy with bevacizumab (yes or no), and ECOG performance status (PS) (0 vs 1 vs 2).
The enrolment started in November 2007 and was completed in March 2010. A total of 1226 patients were randomized. […] Treatment arms were evenly balanced for demographics, disease characteristics and prior anti-cancer treatments, including prior exposition to bevacizumab.
Immediately after, patients received irinotecan, 5-FU and leucovorin (FOLFIRI regimen). This treatment was repeated every 2 weeks.
Study 1 was a randomized, double-blind, placebo-controlled study in patients with metastatic colorectal cancer (mCRC) who are resistant to or have progressed during or within 6 months of receiving oxaliplatin-based combination chemotherapy, with or without prior bevacizumab. A total of 1226 patients were randomized (1:1) to receive either ZALTRAP (N=612; 4 mg per kg as a 1 hour intravenous infusion on day 1) or placebo (N=614), in combination with 5-fluorouracil plus irinotecan [FOLFIRI: irinotecan 180 mg per m2 IV infusion over 90 minutes and leucovorin (dl racemic) 400 mg per m^2 intravenous infusion over 2 hours at the same time on day 1 using a Y-line, followed by 5-FU 400 mg per m^2 intravenous bolus, followed by 5-FU 2400 mg per m^2 continuous intravenous infusion over 46-hours]. The treatment cycles on both arms were repeated every 2 weeks. Patients were treated until disease progression or unacceptable toxicity. The primary efficacy endpoint was overall survival. Treatment assignment was stratified by the ECOG performance status (0 versus 1 versus 2) and according to prior therapy with bevacizumab (yes or no).

[8] = tested on: sexually immature cynomolgus monkeys; assay: 3-month intravenous toxicology study; assay type: in vivo, cynomolgus monkey; conditions: after a post-dosing recovery period
[9] = tested on: previously treated patients with metastatic colorectal cancer; conditions: pre-treated patients with MCRC; cited from earlier work
[10] = tested on: patients with various cancers; assay: Immunogenicity, anti-product antibody (APA) across 15 studies; assay type: in vivo, human
Source text: As with all therapeutic proteins, there is a potential for immunogenicity. In patients with various cancers across 15 studies, 1.4% (41/2862) of patients tested positive for anti-product antibody (APA) at baseline. […] Among patients who tested positive for APA and had sufficient samples for further testing, neutralizing antibodies were detected in 17 of 48 ziv-aflibercept-treated patients and in 2 of 40 patients receiving placebo.
Immunogenicity data are highly dependent on the sensitivity and specificity of the assay. Additionally, the observed incidence of antibody positivity in an assay may be influenced by several factors, including sample handling, timing of sample collection, concomitant medications, and underlying disease. For these reasons, comparison of the incidence of antibodies to ZALTRAP with the incidence of antibodies to other products may be misleading.

[11] = Clinical pharmacokinetics, plasma free ziv-aflibercept by ELISA; assay type: in vivo, human
patients with cancer = assay: Pooled safety across completed studies (RPLS, TMA); assay type: in vivo, human
Source text: Severe proteinuria, nephrotic syndrome, and thrombotic microangiopathy (TMA) occurred more frequently in patients treated with ZALTRAP. In patients with mCRC, proteinuria was reported in 62% patients treated with ZALTRAP/FOLFIRI compared to 41% patients treated with placebo/FOLFIRI. Grade 3-4 proteinuria occurred in 8% of patients treated with ZALTRAP/FOLFIRI to 1% of patients treated with placebo/FOLFIRI [see Adverse Reactions (6.1)]. Nephrotic syndrome occurred in 2 patients (0.5%) treated with ZALTRAP/FOLFIRI compared to none of the patients treated with placebo/FOLFIRI. TMA was reported in 3 of 2258 patients with cancer enrolled across completed studies.
RPLS (also known as posterior reversible encephalopathy syndrome) was reported in 0.5% of 3795 patients treated with ZALTRAP monotherapy or in combination with chemotherapy.

[12] = tested on: non-small cell lung cancer (NSCLC); conditions: added to docetaxel vs docetaxel plus placebo; cited from earlier work
[13] = includes death due to disease progression

ziv-aflibercept: recombinant fusion protein of VEGF-binding portions of human VEGF Receptors 1 and 2 fused to the Fc portion of human IgG1 (SEQ ID NO:1)
proliferation of endothelial cells (endothelial cells): inhibit the proliferation of endothelial cells | increase in systemic exposure in patients weighing >=100 kg ([1]; compared to patients weighing 50 to 100 kg): 29% | pharmacokinetic drug-drug interactions with irinotecan/SN-38 or 5-FU ([1]; cross-study comparisons and population pharmacokinetic analyses): No clinically important pharmacokinetic drug-drug interactions | exposure in patients with mild and moderate hepatic impairment vs normal hepatic function ([1]; data from 1507 patients): similar | exposure in patients with mild, moderate, and severe renal impairment vs normal renal function ([1]; data from 1507 patients): similar | effect of age, race, and gender on the exposure of free ziv-aflibercept ([1]; in vivo): did not have a clinically important effect | Kd (human PIGF-2): 0.039 nM | Kd (human VEGF-B): 0.00192 nM | change in the mean QT interval from baseline (Fridericia correction) [2]: No large changes in the mean QT interval | embryo-fetal toxicity (pregnant rabbits): produced embryo-fetal toxicity | embryo-fetal toxicity (pregnant rabbits; listed as ZALTRAP): embryotoxic and teratogenic | growth of xenotransplanted colon tumors [3]: inhibited the growth | Grade 3 GI fistula formation ([4]; 2 patients): 0.3% | Patients with any TEAE leading to death ([4]; Safety population N = 611): 37 (6.1%) number (%) of patients | dose reduced and/or omitted ([4]; Study 1): 17 % of patients | occurrence of grade 3-4 treatment emergent adverse events ([4]; in vivo): 83.5% | premature treatment discontinuation due to adverse events ([4]; in vivo): 19.5% | rate of permanent discontinuation of study treatment due to adverse events ([4]; in vivo): 26.8% | patients with adverse events that led to death after 30 days of last dosing [4, 13]: 12 | patients with adverse events that led to death within 30 days of last dosing [4, 13]: 28 | reproductive function and fertility ([5]; all doses tested including 3 mg per kg): impaired reproductive function and fertility | reversibility of reproductive findings after cessation of treatment ([5]; monkeys): ≤ 18 weeks | repeat-dose toxicity findings ([5]; weekly/every two weeks intravenous for up to 6 months, from 3 mg per kg per dose): changes in the bone | full-thickness excisional and incisional skin wound model findings (rabbits; rabbit, in vivo): reduced fibrous response, neovascularization, epidermal hyperplasia/re-epithelialization, and tensile strength | wound healing (rabbits): delay in wound healing | wound healing (rabbits; listed as ZALTRAP): impairs wound healing | Grade 3-4 GI perforation events [6]: 0.8% | incidence of GI perforation (all grades) [6]: 0.8% | estimated probability of being alive ([7]; 12 months from randomization): 56.1% | estimated probability of being alive ([7]; 18 months from randomization): 38.5% | Median overall survival (95.34% CI) ([7]; ITT population, all patients, cutoff 7 FEB. 2011): 13.50 months | Median PFS (99.99% CI) ([7]; ITT population, all patients, tumor assessment by the IRC, cutoff 6 MAY 2010): 6.90 months | Overall Response: Responders (Complete response or Partial response), % ([7]; by IRC, evaluable patient population N = 531): 19.8% | reduction of risk of death ([7]; compared to placebo, from hazard ratio): 18.3% | PFS HR (99.99% CI) ([7]; liver metastasis only group): 0.547 | PFS HR (99.99% CI) ([7]; no liver metastasis, or other metastases group): 0.839 | reversibility of skeletal and nasal cavity effects [8]: not reversible | tolerability [9]: well tolerated | neutralizing antibodies detected ([10]; among APA-positive patients with sufficient samples): 17 of 48 | incidence of APA development ([10]; intravenous, 53/1687 patients): 3.1% | mean free ziv-aflibercept trough concentrations in patients with positive neutralizing antibodies ([10]; versus the overall population): lower | dose linearity of free ziv-aflibercept concentrations ([11]; dose range of 2-9 mg/kg): linear pharmacokinetics | Steady state concentrations of free ziv-aflibercept reached ([11]; human, in vivo): by the second dose | RPLS (posterior reversible encephalopathy syndrome) (patients with cancer; 3795 patients, monotherapy or in combination with chemotherapy): 0.5% | thrombotic microangiopathy (TMA) (patients with cancer; patients with cancer enrolled across completed studies): 3 of 2258 | primary endpoint of improvement in overall survival [12]: did not meet the pre-specified criteria
